Columns and labels:
Assay in all cases: WST-1 competition assay, decrease of formazan formation rate on SOO addition
[1] = target: T1, superoxide oxidase (SOO); CybB (Escherichia coli, UniProt P0ABE5, H158A); assay type: biochemical; conditions: apparent Km; forward reaction, superoxide from xanthine oxidase/hypoxanthine, bo3 oxidase regenerates quinone, 50 nM SOO, 100 mM sodium phosphate pH 8, 0.05% DDM; range printed jointly for H158A and H
T1 construct: full length with C-terminal 8xHis tag, expressed in E. coli BL21(DE3) pLysS, membrane protein purified in detergent (OGNG, assayed in DDM), two b hemes
T1 sequence (P0ABE5 whole entry H158A): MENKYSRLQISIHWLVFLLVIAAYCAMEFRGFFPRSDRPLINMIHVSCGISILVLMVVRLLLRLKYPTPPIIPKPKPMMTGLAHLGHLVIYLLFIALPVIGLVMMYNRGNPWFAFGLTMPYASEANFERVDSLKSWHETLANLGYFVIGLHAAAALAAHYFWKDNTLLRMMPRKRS

[2] = target: T2, superoxide oxidase (SOO); CybB (Escherichia coli, UniProt P0ABE5, H158F); assay type: biochemical; conditions: apparent Km; forward reaction, superoxide from xanthine oxidase/hypoxanthine, bo3 oxidase regenerates quinone, 50 nM SOO, 100 mM sodium phosphate pH 8, 0.05% DDM; range printed jointly for H158A and H
T2 construct: full length with C-terminal 8xHis tag, expressed in E. coli BL21(DE3) pLysS, membrane protein purified in detergent (OGNG, assayed in DDM), two b hemes
T2 sequence (P0ABE5 whole entry H158F): as the sequence (P0ABE5 whole entry H158A) above, with A158F counted along it

[3] = substrate: COC1=C(OC)C(=O)C(C/C=C(\C)CCC=C(C)C)=C(C)C1=O; assay type: biochemical, Escherichia coli; conditions: apparent Km, forward reaction, superoxide from xanthine oxidase/hypoxanthine, bo3 oxidase regenerates quinone, 50 nM SOO, 100 mM sodium phosphate pH 8, 0.05% DDM

COC1=C(OC)C(=O)C(C/C=C(\C)CCC=C(C)C)=C(C)C1=O [ubiquinone Q2]
Km [1]: 8 to 13 µM
Km [2]: 8 to 13 µM

B1: superoxide oxidase (SOO); CybB (Escherichia coli K-12) (protein)
chain: MENKYSRLQISIHWLVFLLVIAAYCAMEFRGFFPRSDRPLINMIHVSCGISILVLMVVRLLLRLKYPTPPIIPKPKPMMTGLAHLGHLVIYLLFIALPVIGLVMMYNRGNPWFAFGLTMPYASEANFERVDSLKSWHETLANLGYFVIGLHAAAALAHHYFWKDNTLLRMMPRKRS
notes: full length with C-terminal 8xHis tag, expressed in E. coli BL21(DE3) pLysS, membrane protein purified in detergent (OGNG, assayed in DDM), two b hemes
Km [3]: 0.4 µM

B2: superoxide oxidase (SOO); CybB (Escherichia coli K-12; D164E) (protein)
chain: MENKYSRLQISIHWLVFLLVIAAYCAMEFRGFFPRSDRPLINMIHVSCGISILVLMVVRLLLRLKYPTPPIIPKPKPMMTGLAHLGHLVIYLLFIALPVIGLVMMYNRGNPWFAFGLTMPYASEANFERVDSLKSWHETLANLGYFVIGLHAAAALAHHYFWKENTLLRMMPRKRS
notes: as for B1
Km [3]: 3 µM

B3: superoxide oxidase (SOO); CybB (Escherichia coli K-12; D164A) (protein)
chain: MENKYSRLQISIHWLVFLLVIAAYCAMEFRGFFPRSDRPLINMIHVSCGISILVLMVVRLLLRLKYPTPPIIPKPKPMMTGLAHLGHLVIYLLFIALPVIGLVMMYNRGNPWFAFGLTMPYASEANFERVDSLKSWHETLANLGYFVIGLHAAAALAHHYFWKANTLLRMMPRKRS
notes: as for B1
Km [3]: 5 µM

From PMC11869295, “Molecular Principles of Proton-Coupled Quinone Reduction in the Membrane-Bound Superoxide Oxidase” (Journal of the American Chemical Society, 2025)
